Laboratory results from patent US20250313626A1 (HARBOUR BIOMED SHANGHAI, published 2025).
Positions count from the first letter of the chain named.

T1: Mouse CD200R1-His (mouse, UniProt Q9ES57 26-238, limits assumed)
T1 sequence (looked up): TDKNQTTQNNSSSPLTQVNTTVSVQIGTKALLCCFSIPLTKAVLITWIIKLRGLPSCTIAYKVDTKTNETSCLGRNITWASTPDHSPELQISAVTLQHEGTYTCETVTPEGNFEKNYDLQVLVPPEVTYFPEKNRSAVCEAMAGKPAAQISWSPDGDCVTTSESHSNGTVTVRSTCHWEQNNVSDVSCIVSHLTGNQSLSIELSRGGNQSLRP

T2: human CD200R1a protein (soluble recombinant) (human, UniProt Q8TD46 29-265)
T2 construct: Soluble protein used in BLI; also called human CD200R1 isoform a; not shown: His tag implied by capture on anti-Penta-HIS biosensors
T2 sequence: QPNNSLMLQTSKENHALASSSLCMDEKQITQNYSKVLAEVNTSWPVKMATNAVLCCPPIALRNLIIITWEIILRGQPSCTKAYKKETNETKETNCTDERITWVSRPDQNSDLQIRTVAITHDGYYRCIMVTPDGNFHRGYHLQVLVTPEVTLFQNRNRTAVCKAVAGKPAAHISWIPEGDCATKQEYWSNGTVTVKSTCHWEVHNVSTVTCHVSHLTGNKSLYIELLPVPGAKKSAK

T3: Cyno CD200R1a-His (Cynomolgus macaques, UniProt Q8TD46 25-265 (human entry))
T3 construct: Soluble protein used in BLI; also called Cynomolgus macaques CD200R1a recombinant protein; not shown: His tag
T3 chain: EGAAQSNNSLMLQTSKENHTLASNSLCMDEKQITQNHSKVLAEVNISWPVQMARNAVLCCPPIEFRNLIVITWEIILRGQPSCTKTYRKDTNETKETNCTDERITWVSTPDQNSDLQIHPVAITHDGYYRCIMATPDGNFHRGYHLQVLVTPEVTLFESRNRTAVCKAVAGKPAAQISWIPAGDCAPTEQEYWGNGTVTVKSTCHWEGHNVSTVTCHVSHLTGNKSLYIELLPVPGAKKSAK

T4: Cynomolgus macaques CD200R1 isoform a on CHOK1 cells (CHOK1/cynoCD200R1a) (Cynomolgus macaques)
T4 chain: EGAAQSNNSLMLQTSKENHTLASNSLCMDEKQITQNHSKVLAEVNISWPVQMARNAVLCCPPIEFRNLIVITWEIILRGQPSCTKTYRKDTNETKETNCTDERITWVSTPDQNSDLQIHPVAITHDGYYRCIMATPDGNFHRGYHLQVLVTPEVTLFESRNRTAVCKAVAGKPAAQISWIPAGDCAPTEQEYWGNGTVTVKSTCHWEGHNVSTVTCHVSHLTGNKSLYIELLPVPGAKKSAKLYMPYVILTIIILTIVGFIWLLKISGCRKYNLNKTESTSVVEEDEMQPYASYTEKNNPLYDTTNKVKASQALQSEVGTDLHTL

B1: PR006480 (antibody, human IgG1, kappa, L234A L235A)
heavy: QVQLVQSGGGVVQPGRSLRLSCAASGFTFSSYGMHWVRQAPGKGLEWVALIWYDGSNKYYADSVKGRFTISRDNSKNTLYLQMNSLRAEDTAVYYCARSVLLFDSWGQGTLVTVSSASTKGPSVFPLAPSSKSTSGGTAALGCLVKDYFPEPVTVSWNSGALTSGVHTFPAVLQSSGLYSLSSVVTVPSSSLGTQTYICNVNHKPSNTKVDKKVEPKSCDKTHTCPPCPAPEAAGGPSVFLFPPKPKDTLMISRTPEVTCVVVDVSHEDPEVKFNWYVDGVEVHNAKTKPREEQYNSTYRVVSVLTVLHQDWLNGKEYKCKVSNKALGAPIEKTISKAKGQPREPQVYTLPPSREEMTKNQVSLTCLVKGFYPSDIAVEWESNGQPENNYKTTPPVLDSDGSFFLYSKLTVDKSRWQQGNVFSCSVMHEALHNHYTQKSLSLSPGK
light: DIQMTQSPPSLSASVGDRVTITCRASQSISSYLNWFQQKAGKAPKLLISATSNLQSGVPSRFSGSGSGTDFTLTISSLQPEDLATYYCQQSYSSPYTFGQGTKVEIKRTVAAPSVFIFPPSDEQLKSGTASVVCLLNNFYPREAKVQWKVDNALQSGNSQESVTEQDSKDSTYSLSSTLTLSKADYEKHKVYACEVTHQGLSSPVTKSFNRGEC
notes: also called PR6480
B2: PR007223 (antibody, human IgG1, kappa)
heavy: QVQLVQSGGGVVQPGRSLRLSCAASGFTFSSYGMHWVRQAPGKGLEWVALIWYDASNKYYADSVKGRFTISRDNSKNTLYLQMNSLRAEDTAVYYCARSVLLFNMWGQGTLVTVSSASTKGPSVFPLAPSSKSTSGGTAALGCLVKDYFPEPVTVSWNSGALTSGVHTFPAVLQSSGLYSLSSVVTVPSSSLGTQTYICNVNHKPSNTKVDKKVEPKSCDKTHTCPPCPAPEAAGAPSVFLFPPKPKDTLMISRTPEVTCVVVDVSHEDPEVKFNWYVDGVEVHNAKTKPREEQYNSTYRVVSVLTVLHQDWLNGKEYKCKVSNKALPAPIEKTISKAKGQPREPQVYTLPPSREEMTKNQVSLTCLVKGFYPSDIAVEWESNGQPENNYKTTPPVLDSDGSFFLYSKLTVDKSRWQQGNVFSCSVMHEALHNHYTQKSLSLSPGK
light: B1 light with M4L, S91T
notes: PTM variant of PR006895 (human IgG1)
B3: PR007221 (antibody, human IgG1, kappa)
heavy: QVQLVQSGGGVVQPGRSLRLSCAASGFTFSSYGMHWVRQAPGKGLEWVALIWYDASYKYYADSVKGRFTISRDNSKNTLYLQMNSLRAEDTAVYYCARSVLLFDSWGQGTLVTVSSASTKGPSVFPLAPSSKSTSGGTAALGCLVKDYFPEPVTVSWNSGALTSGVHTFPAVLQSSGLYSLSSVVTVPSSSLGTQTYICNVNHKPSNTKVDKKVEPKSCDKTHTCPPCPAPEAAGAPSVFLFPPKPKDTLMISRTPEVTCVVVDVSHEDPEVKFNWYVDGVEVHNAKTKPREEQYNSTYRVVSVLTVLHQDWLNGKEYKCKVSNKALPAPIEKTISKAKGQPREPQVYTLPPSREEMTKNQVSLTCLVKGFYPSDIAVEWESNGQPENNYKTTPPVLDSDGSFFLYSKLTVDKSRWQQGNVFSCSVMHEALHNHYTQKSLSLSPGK
light: B1 light with M4L, S91T, Y92L
notes: as for B2
B4: PR005509 (antibody, human IgG1, kappa, L234A L235A, V domains shown)
VH: QVQLVESGGGVVQPGRSLRLSCAASGFTFSSYGFHWVRQAPGKGLEWLGLIWSDGSNKYYADSVKGRFTISRDNSKNTLYLQMNSLRAEDTAVYYCARDRIVGAGFDYWGQGTLVTVSS
VL: not shown
B5: PR005474 (antibody, human IgG1, kappa, L234A L235A, V domains shown)
VH: B4 VH with G26A, F34M, L48V, G49A, S53N, Y59F, Y80F, V102L
VL: not shown
B6: PR007973 (antibody, human IgG1, kappa, V domains shown)
VH: B4 VH with L50I, G55A, A104E
VL: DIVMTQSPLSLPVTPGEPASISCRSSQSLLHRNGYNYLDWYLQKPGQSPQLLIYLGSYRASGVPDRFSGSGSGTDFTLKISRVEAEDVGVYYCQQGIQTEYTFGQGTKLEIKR
notes: PTM variant of PR006839 (human IgG1)
B7: PR002906 (antibody, V domains shown)
VH: QVQLQESGPGLVKPSETLSLTCTVSGYTITSGYDWSWIRQPPGKGLEWIGYINYGGSTNYKPSLGSRVTISVDTSKNQFSLKLSSVTAADTAVYYCARYNEYKSYIYDWYFDFWGQGTLVTVSS
VL: DIQMTQSPSSLSASVGDRVTITCKASKNIRSYLAWYQQKPGKAPKLLIYSGSTLHSGVPSRFSGSGSGTDFTLTISSLQPEDFATYYCQQHHEYPLTFGQGTKVEIKR
notes: also called recombinant IgG1 antibody of huDX182

Target: T1, Mouse CD200R1-His
Test: BLI (Octet), antibody captured on anti-human Fc sensor
Procedure: (§1) To determine the binding affinities of the anti-CD200R1 antibodies to CD200R1a proteins of various species (mouse, human, Cynomolgus macaques), bio-layer interferometry (BLI) assays were carried out using an Octet® RED96e instrument. Antibodies were produced as described in Example 3.4 and diluted to 5 μg/mL using freshly prepared 1× kinetic buffer (10× kinetic buffer (Catalog #18-1105, ForteBio) was diluted with PBS(Catalog #E607016-0500, BBI Life Sciences)) and were captured on the surface of anti-human Fc (AHC) Octet biosensors (Catalog #18-5060, ForteBio) to reach capture levels between 0.9-1.2 nm. The biosensors having the captured anti-CD200R1 antibodies were then dipped in wells containing 2-fold serial dilutions of CD200R1a proteins to detect association signals, followed by dissociation steps in wells containing 1× kinetic buffer. The sensorgrams were recorded and the reference signals were subtracted before curve fitting using ForteBio Data Analysis 11.0 software. Association rates (kₒₙ) and dissociation rates (koff) were calculated using a simple one-to-one Langmuir binding model. The equilibrium dissociation constant (KD) was calculated as the ratio of koff/kₒₙ.

Binder	binding result
B1	no binding
B2	no binding
B3	no binding
B4	no binding
B5	no binding
B6	no binding

Target: T2, human CD200R1a protein (soluble …)
Test: BLI (Octet), antibody captured on anti-human Fc sensor, soluble CD200R1a as analyte, 1:1 fit
Procedure: as §1

Binder	Kd [nM]	koff [s⁻¹]	kon [M⁻¹ s⁻¹]
B7	39.3	0.00341	86700
B1	14.3	0.000476	33300
B2	2.07	0.000133	64200
B3	4.34	0.000211	48600
B4	7.74	0.000511	66100
B5	16.6	0.00101	60700
B6	1.06	5.97e-05	56200

Target: T3, Cyno CD200R1a-His
Test: as above
Procedure: as §1

Binder	Kd [nM]	koff [s⁻¹]	kon [M⁻¹ s⁻¹]
B1	104	0.00713	68500
B2	16.3	0.0014	86000
B3	12.5	0.000776	62100
B4	146	0.0275	189000
B5	147	0.0287	196000
B6	10.2	0.000151	14900

Target: T4, Cynomolgus macaques CD200R1 isoform a …
Test: flow cytometry, CHOK1/cynoCD200R1a cells; table beside the curves, head without unit, x axis Log [Ab] (nM)
Procedure: This example is intended to investigate the in vitro binding activity of human anti-CD200R1 monoclonal antibodies to human/Cynomolgus macaques CD200R1a expressed on the surface of cells. The anti-CD200R1 antibodies were produced as described in Example 3.4 and the binding experiments at the cell level were performed using CHOK1/hCD200R1a and CHOK1-cynoCD200R1a.
Briefly, CHOK1/hCD200R1a cells and CHOK1-cynoCD200R1a cells were digested, and collected, and then were resuspended in PBS containing 2% BSA, respectively. The cell density was adjusted to 1×10⁶ cells/mL. The cells were seeded in a 96-well V-bottom plate (Corning, #3894) at 100 μL/well, followed by the addition of test antibodies and reference antibodies in a series diluted concentration, each at 100 μL/well. The cells were incubated away from light at 4° C. for 1 h. Thereafter, the cells in each well were rinsed twice with 100 μL of pre-cooled PBS containing 2% BSA, and centrifuged at 500 g at 4° C. for 5 min, and then the supernatant was discarded. 100 μL of fluorescent secondary antibody (Alexa Fluor 488-conjugated AffiniPure Goat Anti-Human IgG, Fcγ Fragment Specific, Jackson, #109-545-098, diluted in a 1:1000 ratio) was added in each well, and the plate was incubated away from light at 4° C. for 1 h. The cells in each well were rinsed twice with 100 μL of pre-cooled PBS containing 2% BSA, and centrifuged at 500 g at 4° C. for 5 min, and then the supernatant was discarded. Finally, the cells in each well were resuspended in 200 μL of pre-cooled PBS containing 2% BSA, and the fluorescence signal values were read using a BD CantoII flow cytometer.

Binder	EC50 [nM]
B7	20.8
B1	2.98
B5	3.34
